{
  "source": "paper PMC6929137",
  "about": "“Thrombin Aptamer-Modified Metal–Organic Framework Nanoparticles: Functional Nanostructures for Sensing Thrombin and the Triggered Controlled Release of Anti-Blood Clotting Drugs”",
  "binders": {"B1": {"name": "thrombin aptamer (2) hybridized to anchor (1) on UiO-68 NMOFs (mixed)", "DNA": "GGTTGGTGTGGTTGGTTTT", "?": "AAAACCAACCA", "modifications": "strand 2 (anchor): 5'-NH2-(CH2)6, DBCO-modified, clicked to azide-functionalized UiO-68 NMOF"}},
  "key": {"[1]": {"molecular_target": "vascular endothelial growth factor 165 (VEGF) (human, UniProt P15692-4 27-191)", "sequence (P15692 other isoform, or with tags, fused parts or gaps)": "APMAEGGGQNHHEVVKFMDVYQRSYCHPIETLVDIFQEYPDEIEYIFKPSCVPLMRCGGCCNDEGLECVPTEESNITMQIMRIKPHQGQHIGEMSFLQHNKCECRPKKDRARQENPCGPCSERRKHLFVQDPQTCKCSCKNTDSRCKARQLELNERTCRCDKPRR", "assay": "strand-displacement release of rhodamine 6G and Apixaban from gated NMOFs (fluorescence); 1 uM protein; background release only; 10 mM HEPES pH 7.4, 20 mM NaCl, 10 mM KCl, 10 mM MgCl2; 30 min; temperature not stated", "details": "protein: commercial; chain copies: 2; label: none on DNA; read-out is released rhodamine 6G or Apixaban fluorescence; 11 bp duplex, 5' overhang 8 nt on aptamer strand"}, "[2]": {"molecular_target": "thrombin (UniProt P00734;P00734 328-363;364-622)", "assay": "strand-displacement release of rhodamine 6G from gated NMOFs (fluorescence); thrombin 0.25-1 uM; 10 mM KCl, 10 mM MgCl2; competes with anchor strand (1); 10 mM HEPES pH 7.4, 20 mM NaCl, 10 mM KCl, 10 mM MgCl2; 30 min; temperature not stated"}},
  "data": [
    {"binder": "B1", "values": [
      {"measurement": "binding result", "setting": "[1]", "result": "no binding"},
      {"measurement": "binding result", "setting": "[2]", "result": "binds"}
    ]}
  ]
}
